In the DeepSol protein solubility set:

Assay: soluble on expression in E. coli; label from the status in PepcDB or PDB records

Row | Sequence | soluble on expression in E. coli
1 | MKMTLPFKPHVLALICSAGLCAASAGLYIKSRTVEAPVETQSTQLAVSDAAAVTLPATVSAPPVTPAVVKSAFSTAQIDQWVAPVALYPDALLSQVLMASTYPTNVAQAVQWSHDNPLKQGDAAIQAVSDQPWDASVKSLVAFPQLMALMGENPQWVQNLGDAFLAQPQDVMDSVQRLRQLAQQTGSLKSSTEQKVITTTKKTVPVTQTVTAPVIPSNTVSTANPVITEPATTVISIEPGNPDVVYIPNYNPTVVYGNWANTAYPPVYLPPPAGEPFVDSFVRGFGYSMGVATTYALFSSIDWDDDDHDHHHHDDDNYHHHDGGHRDGNGWQHNGDNINIDVNNFNRITGEHLTDKNMAWRHNPNYRNGVPYHDQDMAKRFHQTDVNGGMSATQLPAPTRDSQRQAAASQFQQRTHAAPVITRDTQRQAAAQRFNEAEHYGSYDDFRDFSRRQPLTQQQKDAARQRYQSASPEQRQAVHEKMQTNPQNQQRREAARERIQPASPEQRQAVREKMQTNPQIQQRRDAARERIQSASPEQRQVFKEKVQQRPLNQQQRDNARQRVQSASPEQRQVFREKVQESRPQRLNDSNHTARLNNEQRSAVRERLSERGARRLER | not soluble
2 | MGSDKIHHHHHHMTIATDSLKLITTVEQLKYYLIQAMKIEHATIPPYMTALYSIKPGKNLEAFHIIREVAVEEMLHLTLVANVYNAVGGSFASPVLTAPNFIPTYPSYLPTGSTDFKVGLTKFSKKTIETFRKIERSKDVEEGDPLVESRSLQEYLLEVVGCDPTKTFYSIGLFYAEIIRGLNALYKEKGPDLFCGDPRRQITPEYYYNGGGDIIPVTDLRSAMRALKVIQEQGEGSRSGTIYDAERELAHDYRFQQILLEKYYVIDKDDPTKSDQPNEPTGKSFNVDWNEVYPIKDNAKLSDYPEGSEVRTAALAFHSAYSEFLAKIEYAFDGHPEQLVPAVGGMFRLKEQANSLMRNPIPGNPGVNAAPIFKLDKR | not soluble
3 | MGSDKIHHHHHHMEAIQVASVKDNFVKTLEKIRKKHGVDIIALFAIRQSLAIHVINSADNPVSFSAGTIFNLTLTPLVEEFLFNVKTFENHPQKTRFALVENVQWELYIPVVFKEFPTGFVYVASKKKRDAEKTEGIIRDLQDFLKAHGLEYYFLEYSVVLDQLLTTVAILIDRLFSRVSRYTLNHIYNVAFWAEEIGKIVGLDEKRLAKLYLAGLLHDIGKVYIDERILNKEGRLTLQEYQEMKKHVDYSYNMVKDLMIWDIEDDVALWVVQHHEKFDGSGYPFGLKEEEITPEGRILKIADTLDAMLSPRSYRNPFPLDDVIKEIERLRGKDFDPLLADLTVDLLREKKESLGLFEGRILPATLIAGEGIHEGILRKNDGYHVFISDYV | not soluble
4 | MVPPRGDAVRGPLGPGGESVVERYWEALKGVKDPEIPVLNIVEMGMVLGVEAEGKRVKVRFRPTFSGCPAIQLIREEIVGALKEAGAEEVEVEEARTPWSTEAMTEEAREKLLGYGVAPPLPLPMAGEDPPCPRCGSREVVLKNPFGATLCKTLYQCAACGEVFEAFKTV | soluble
5 | MGSDKIHHHHHHMRADLTPFLNDRLDWNLLRTYLVIMQERSVSRAAARLHVTQPAVSQALRRLEDTLERKLIERRGAHFAPTPAGEAVYRIASDIYGGVSRLETELDDSTADLTGSIRLLTVSRIESPVYDAFLADFHRAYPRIDLQIEVMRSSDILSSLLQKTATAGLGLCRTPHDKLEMRCFLRQRYAIYCGRHHRLFGQTQLRMEDLLAENFVSFTSDQIGDSLSPLTVFRDQKGFTGRIVASSPSLEEVRRLIFAGYGIGCLPEHIVRDDIAQQRLWRLPPDDGLVDVDVFLLWHRDRKMNAAEHAFLDAMERCMQQHSLAERLGM | not soluble
6 | GAHMVTSNVVLVSGEGERFTVDKKIAERSLLLKNYLNDMGDDDDEDDDEIVMPVPNVRSSVLQKVIEWAEHHRDSNFPDEDDDDSRKSAPVDSWDREFLKVDQEMLYEIILAANYLNIKPLLDAGCKVVAEMIRGRSPEEIRRTFNIVNDFTPEEEAAIRRENEWAEDR | soluble
7 | MGSDKIHHHHHHMKTLKGPGIFLAQYIGDQAPFNTLENLAQWAAGLGFKALQIPCNHPHIFNLATAADSQTYCDEVKGLLAQHGLTISELSTHLEGQLVAVHPAYDDAFDDFAPPAYRRNPQARQQWAISAIKQAAKASSRLGLNAHATFSGALAWPYFYPWPPRKEALIQEAFKELGRLWTPILDCFDEHGVDVCYELHPGEDLHDGVTFERFLDVVNHHPRANILYDPSHMHLQQMDYLGFIDRYHARIKAFHVKDAEFTPSSKSGVYGGYQSWAERAGRFRSPGDGQIDFGAIFSKLAQYDYDGWAVLEWECCLKDSNCGAKEGAAFIDRHIIPVAQRAFDDFAATSDDRPLVRKMLGLKEEDAE | not soluble
8 | MGSDKIHHHHHHMTNYIEEYCAQIRRMGSAGLIAKPILVDQDGTYTMTYVPHEHLNLGARLVLVSTTPGHAHVRLAAAVTEELLQARTPGRVIQRENKRRVELGGQLIRPNLIRMLDHFRAPELVGLPHAAALWNEGFEQFQPLALLPCATTRRGLAFNGTLEDLLAAPMLRAAFEAHFLGALRQMRPDAFYIALGRTAWSGLRHAASRRLLAKHQLLGMMPVPARAGNMVRYFLREISANDLSPNDPVRHRVDWLDAAHTELMANVQKVRAANMPPEGPNYLIA | not soluble
9 | IHPVDSSERVLILGAGRTAEALVRDMRRTGAFVPVGFIDDAVYLRGAKIQGLNVLGRLEEVSTIARETAAKLLVIAIPSLDAAGMQRVVAMCESTGLPFRMVPKLIDVLEGRTLPCQLKEVSIEDLLNRKPVIPDWRLIRSWLSG | not soluble
10 | MESKAKTTVTFHSGILTIGGTVIEVAYKDAHIFFDFGTEFRPELDLPDDHIETLINNRLVPELKDLYDPRLGYEYHGAEDKDYQHTAVFLSHAHLDHSRMINYLDPAVPLYTLKETKMILNSLNRKGDFLIPSPFEEKNFTREMIGLNKNDVIKVGEISVEIVPVDHDAYGASALLIRTPDHFITYTGDLRLHGHNREETLAFCEKAKHTELLMMEGVSISFPEREPDPAQIAVVSEEDLVQHLVRLELENPNRQITFNGYPANVERFAKIIEKSPRTVVLEANMAALLLEVFGIEVRYYYAESGKIPELNPALEIPYDTLLKDKTDYLWQVVNQFDNLQEGSLYIHSDAQPLGDFDPQYRVFLDLLAKKDITFVRLACSGHAIPEDLDKIIALIEPQVLVPIHTLKPEKLENPYGERILPERGEQIVL | soluble
11 | MGSDKIHHHHHHMSSNTFTLGTKSVNRLGYGAMQLAGPGVFGPPRDRHVAITVLREALALGVNHIDTSDFYGPHVTNQIIREALYPYSDDLTIVTKIGARRGEDASWLPAFSPAELQKAVHDNLRNLGLDVLDVVNLRVMMGDGHGPAEGSIEASLTVLAEMQQQGLVKHIGLSNVTPTQVAEARKIAEIVCVQNEYNIAHRADDAMIDALAHDGIAYVPFFPLGGFTPLQSSTLSDVAASLGATPMQVALAWLLQRSPNILLIPGTSSVAHLRENMAAEKLHLSEEVLSTLDGISRE | not soluble
12 | NAFVSIQTSTIPKTAFVARDFVPLQNRGNQWVAPVRASEDDPALAKSYLDFAIIEVPLFLHNQMDKQIYDHFMRPAINTYERLGNSVGIFAYQPMASFKRDSYFALGYPQVESNIAALNLNQTEVKPTRPEDVAQVTFKEPWSVDHHREIPTLTTNQLTTIKTKHFSGSKLSWPFDHTKSF | not soluble
13 | HMNFKMEHQNKRSPLHAAAEAGHVDICHMLVQAGANIDTCSEDQRTPLMEAAENNHLEAVKYLIKAGALVDPKDAEGSTCLHLAAKKGHYEVVQYLLSNGQMDVNCQDDGGWTPMIWATEYKHVDLVKLLLSKGSDINIRDNEENICLHWAAFSGCVDIAEILLAAKCDLHAVNIHGDSPLHIAARENRYDCVVLFLSRDSDVTLKNKEGETPLQCASLNSQVWSALQMSKALQDSA | soluble
14 | MVLAPFFEKAPSLIIAPDGSVLFECICNANPQPTVKWFLKDKELTGDRYVSKIKKMVGKFTVTLHIKNPTQEDQGVYKVTATNTHGSHSVEQQYIYKCTGKEVFKTLD | soluble
15 | MGSDKIHHHHHHMRNTDTYSYLVRDGHDLVHDPVPGILGPRPIGWISTCDSSGRPRLQTYSFFGIFNYVPPIVGFASVGGTESVNNAELTGEFAYNLATRPLAGCVNQTIVPALTEMDEFERSGLTKIRSIAIAAPRVAESPVSLECRVTSIQQLNGLDSEALNTWLVLGEVVAVHINRELLCDGFYDTVAAQPILRGGGACDYFEVLQAGKFRMTHPR | not soluble
